From patent US20220306695A1, “COMPSTATIN ANALOGUES AND THEIR MEDICAL USES” (priority 2019, published 2022)
Starred links: 1 amine or outer side, 2 acyl side, 3 side chain; linkers in the order of their positions; H or OH if unused. Positions of bridges follow the written chain, without caps; N, C: chain ends. Non-standard residues stand in square brackets, D forms with d. Groups on a side chain read outwards from the residue. *: point of attachment. Trp(1-Me) = Cn1cc(C[C@H](N)C(=O)O)c2ccccc21; C18 diacid = O=C(O)CCCCCCCCCCCCCCCCC(=O)*; C16 diacid = O=C(O)CCCCCCCCCCCCCCC(=O)*; γGlu = O=C(O)[C@H](CCC(=O)[*:2])N[*:1]; Sar = CNCC(=O)O

B1: Compound 110 (peptide)
peptide: Ac-EGSAYCI[Trp(1-Me)]QDWGEHRC[Sar]EGKK([γGlu-Gly-γGlu-C18 diacid])-NH2
modifications: disulfide 6-16
SMILES: CC[C@H](C)[C@@H]1NC(=O)[C@@H](NC(=O)[C@H](Cc2ccc(O)cc2)NC(=O)[C@H](C)NC(=O)[C@H](CO)NC(=O)CNC(=O)[C@H](CCC(=O)O)NC(C)=O)CSSC[C@@H](C(=O)N(C)CC(=O)N[C@@H](CCC(=O)O)C(=O)NCC(=O)N[C@@H](CCCCN)C(=O)N[C@@H](CCCCNC(=O)CC[C@H](NC(=O)CNC(=O)CC[C@H](NC(=O)CCCCCCCCCCCCCCCCC(=O)O)C(=O)O)C(=O)O)C(N)=O)NC(=O)[C@H](CCCNC(=N)N)NC(=O)[C@H](Cc2c[nH]cn2)NC(=O)[C@H](CCC(=O)O)NC(=O)CNC(=O)[C@H](Cc2c[nH]c3ccccc23)NC(=O)[C@H](CC(=O)O)NC(=O)[C@H](CCC(N)=O)NC(=O)[C@H](Cc2cn(C)c3ccccc23)NC1=O
B2: Compound 112 (peptide)
peptide: Ac-SEYCI[Trp(1-Me)]QDWGEHRC[Sar]EGAK([γGlu-Gly-γGlu-C18 diacid])-NH2
modifications: disulfide 4-14
SMILES: CC[C@H](C)[C@@H]1NC(=O)[C@@H](NC(=O)[C@H](Cc2ccc(O)cc2)NC(=O)[C@H](CCC(=O)O)NC(=O)[C@H](CO)NC(C)=O)CSSC[C@@H](C(=O)N(C)CC(=O)N[C@@H](CCC(=O)O)C(=O)NCC(=O)N[C@@H](C)C(=O)N[C@@H](CCCCNC(=O)CC[C@H](NC(=O)CNC(=O)CC[C@H](NC(=O)CCCCCCCCCCCCCCCCC(=O)O)C(=O)O)C(=O)O)C(N)=O)NC(=O)[C@H](CCCNC(=N)N)NC(=O)[C@H](Cc2c[nH]cn2)NC(=O)[C@H](CCC(=O)O)NC(=O)CNC(=O)[C@H](Cc2c[nH]c3ccccc23)NC(=O)[C@H](CC(=O)O)NC(=O)[C@H](CCC(N)=O)NC(=O)[C@H](Cc2cn(C)c3ccccc23)NC1=O
B3: Compound 113 (peptide)
peptide: Ac-ASGEYCI[Trp(1-Me)]QDWGEHRC[Sar]EGEK([γGlu-Gly-γGlu-C18 diacid])-NH2
modifications: disulfide 6-16
SMILES: CC[C@H](C)[C@@H]1NC(=O)[C@@H](NC(=O)[C@H](Cc2ccc(O)cc2)NC(=O)[C@H](CCC(=O)O)NC(=O)CNC(=O)[C@H](CO)NC(=O)[C@H](C)NC(C)=O)CSSC[C@@H](C(=O)N(C)CC(=O)N[C@@H](CCC(=O)O)C(=O)NCC(=O)N[C@@H](CCC(=O)O)C(=O)N[C@@H](CCCCNC(=O)CC[C@H](NC(=O)CNC(=O)CC[C@H](NC(=O)CCCCCCCCCCCCCCCCC(=O)O)C(=O)O)C(=O)O)C(N)=O)NC(=O)[C@H](CCCNC(=N)N)NC(=O)[C@H](Cc2c[nH]cn2)NC(=O)[C@H](CCC(=O)O)NC(=O)CNC(=O)[C@H](Cc2c[nH]c3ccccc23)NC(=O)[C@H](CC(=O)O)NC(=O)[C@H](CCC(N)=O)NC(=O)[C@H](Cc2cn(C)c3ccccc23)NC1=O
B4: Compound 114 (peptide)
peptide: Ac-SEYCI[Trp(1-Me)]QDWGEHRC[Sar]EGEK([γGlu-Gly-γGlu-C18 diacid])-NH2
modifications: disulfide 4-14
SMILES: CC[C@H](C)[C@@H]1NC(=O)[C@@H](NC(=O)[C@H](Cc2ccc(O)cc2)NC(=O)[C@H](CCC(=O)O)NC(=O)[C@H](CO)NC(C)=O)CSSC[C@@H](C(=O)N(C)CC(=O)N[C@@H](CCC(=O)O)C(=O)NCC(=O)N[C@@H](CCC(=O)O)C(=O)N[C@@H](CCCCNC(=O)CC[C@H](NC(=O)CNC(=O)CC[C@H](NC(=O)CCCCCCCCCCCCCCCCC(=O)O)C(=O)O)C(=O)O)C(N)=O)NC(=O)[C@H](CCCNC(=N)N)NC(=O)[C@H](Cc2c[nH]cn2)NC(=O)[C@H](CCC(=O)O)NC(=O)CNC(=O)[C@H](Cc2c[nH]c3ccccc23)NC(=O)[C@H](CC(=O)O)NC(=O)[C@H](CCC(N)=O)NC(=O)[C@H](Cc2cn(C)c3ccccc23)NC1=O
B5: Compound 115 (peptide)
peptide: Ac-SEYCI[Trp(1-Me)]QDWGEHRC[Sar]EGKK([γGlu-Gly-γGlu-C18 diacid])-NH2
modifications: disulfide 4-14
SMILES: CC[C@H](C)[C@@H]1NC(=O)[C@@H](NC(=O)[C@H](Cc2ccc(O)cc2)NC(=O)[C@H](CCC(=O)O)NC(=O)[C@H](CO)NC(C)=O)CSSC[C@@H](C(=O)N(C)CC(=O)N[C@@H](CCC(=O)O)C(=O)NCC(=O)N[C@@H](CCCCN)C(=O)N[C@@H](CCCCNC(=O)CC[C@H](NC(=O)CNC(=O)CC[C@H](NC(=O)CCCCCCCCCCCCCCCCC(=O)O)C(=O)O)C(=O)O)C(N)=O)NC(=O)[C@H](CCCNC(=N)N)NC(=O)[C@H](Cc2c[nH]cn2)NC(=O)[C@H](CCC(=O)O)NC(=O)CNC(=O)[C@H](Cc2c[nH]c3ccccc23)NC(=O)[C@H](CC(=O)O)NC(=O)[C@H](CCC(N)=O)NC(=O)[C@H](Cc2cn(C)c3ccccc23)NC1=O
B6: Compound 129 (peptide)
peptide: Ac-SEFCI[Trp(1-Me)]QDWGEHRC[Sar]EGEGGGK([γGlu-Gly-γGlu-C18 diacid])-NH2
modifications: disulfide 4-14
SMILES: CC[C@H](C)[C@@H]1NC(=O)[C@@H](NC(=O)[C@H](Cc2ccccc2)NC(=O)[C@H](CCC(=O)O)NC(=O)[C@H](CO)NC(C)=O)CSSC[C@@H](C(=O)N(C)CC(=O)N[C@@H](CCC(=O)O)C(=O)NCC(=O)N[C@@H](CCC(=O)O)C(=O)NCC(=O)NCC(=O)NCC(=O)N[C@@H](CCCCNC(=O)CC[C@H](NC(=O)CNC(=O)CC[C@H](NC(=O)CCCCCCCCCCCCCCCCC(=O)O)C(=O)O)C(=O)O)C(N)=O)NC(=O)[C@H](CCCNC(=N)N)NC(=O)[C@H](Cc2c[nH]cn2)NC(=O)[C@H](CCC(=O)O)NC(=O)CNC(=O)[C@H](Cc2c[nH]c3ccccc23)NC(=O)[C@H](CC(=O)O)NC(=O)[C@H](CCC(N)=O)NC(=O)[C@H](Cc2cn(C)c3ccccc23)NC1=O
B7: Compound 131 (peptide)
peptide: Ac-SEFCI[Trp(1-Me)]QDWGEHRCTEGEGGGK([γGlu-Gly-γGlu-C16 diacid])-NH2
modifications: disulfide 4-14
SMILES: CC[C@H](C)[C@@H]1NC(=O)[C@@H](NC(=O)[C@H](Cc2ccccc2)NC(=O)[C@H](CCC(=O)O)NC(=O)[C@H](CO)NC(C)=O)CSSC[C@@H](C(=O)N[C@H](C(=O)N[C@@H](CCC(=O)O)C(=O)NCC(=O)N[C@@H](CCC(=O)O)C(=O)NCC(=O)NCC(=O)NCC(=O)N[C@@H](CCCCNC(=O)CC[C@H](NC(=O)CNC(=O)CC[C@H](NC(=O)CCCCCCCCCCCCCCC(=O)O)C(=O)O)C(=O)O)C(N)=O)[C@@H](C)O)NC(=O)[C@H](CCCNC(=N)N)NC(=O)[C@H](Cc2c[nH]cn2)NC(=O)[C@H](CCC(=O)O)NC(=O)CNC(=O)[C@H](Cc2c[nH]c3ccccc23)NC(=O)[C@H](CC(=O)O)NC(=O)[C@H](CCC(N)=O)NC(=O)[C@H](Cc2cn(C)c3ccccc23)NC1=O
B8: Compound 132 (peptide)
peptide: Ac-SEFCI[Trp(1-Me)]QDWGEHRC[Sar]EK[γGlu]GGGK([γGlu-Gly-γGlu-C18 diacid])-NH2
modifications: disulfide 4-14
SMILES: CC[C@H](C)[C@@H]1NC(=O)[C@@H](NC(=O)[C@H](Cc2ccccc2)NC(=O)[C@H](CCC(=O)O)NC(=O)[C@H](CO)NC(C)=O)CSSC[C@@H](C(=O)N(C)CC(=O)N[C@@H](CCC(=O)O)C(=O)N[C@@H](CCCCN)C(=O)N[C@@H](CCC(=O)NCC(=O)NCC(=O)NCC(=O)N[C@@H](CCCCNC(=O)CC[C@H](NC(=O)CNC(=O)CC[C@H](NC(=O)CCCCCCCCCCCCCCCCC(=O)O)C(=O)O)C(=O)O)C(N)=O)C(=O)O)NC(=O)[C@H](CCCNC(=N)N)NC(=O)[C@H](Cc2c[nH]cn2)NC(=O)[C@H](CCC(=O)O)NC(=O)CNC(=O)[C@H](Cc2c[nH]c3ccccc23)NC(=O)[C@H](CC(=O)O)NC(=O)[C@H](CCC(N)=O)NC(=O)[C@H](Cc2cn(C)c3ccccc23)NC1=O
B9: Compound 133 (peptide)
peptide: Ac-SEFCI[Trp(1-Me)]QDWGEHRCTEK[γGlu]GGGK([γGlu-Gly-γGlu-C18 diacid])-NH2
modifications: disulfide 4-14
SMILES: CC[C@H](C)[C@@H]1NC(=O)[C@@H](NC(=O)[C@H](Cc2ccccc2)NC(=O)[C@H](CCC(=O)O)NC(=O)[C@H](CO)NC(C)=O)CSSC[C@@H](C(=O)N[C@H](C(=O)N[C@@H](CCC(=O)O)C(=O)N[C@@H](CCCCN)C(=O)N[C@@H](CCC(=O)NCC(=O)NCC(=O)NCC(=O)N[C@@H](CCCCNC(=O)CC[C@H](NC(=O)CNC(=O)CC[C@H](NC(=O)CCCCCCCCCCCCCCCCC(=O)O)C(=O)O)C(=O)O)C(N)=O)C(=O)O)[C@@H](C)O)NC(=O)[C@H](CCCNC(=N)N)NC(=O)[C@H](Cc2c[nH]cn2)NC(=O)[C@H](CCC(=O)O)NC(=O)CNC(=O)[C@H](Cc2c[nH]c3ccccc23)NC(=O)[C@H](CC(=O)O)NC(=O)[C@H](CCC(N)=O)NC(=O)[C@H](Cc2cn(C)c3ccccc23)NC1=O
B10: Compound 134 (peptide)
peptide: Ac-EFCI[Trp(1-Me)]QDWGEHRCEGEK([γGlu-Gly-γGlu-C18 diacid])-NH2
modifications: disulfide 3-13
SMILES: CC[C@H](C)[C@@H]1NC(=O)[C@@H](NC(=O)[C@H](Cc2ccccc2)NC(=O)[C@H](CCC(=O)O)NC(C)=O)CSSC[C@@H](C(=O)N[C@@H](CCC(=O)O)C(=O)NCC(=O)N[C@@H](CCC(=O)O)C(=O)N[C@@H](CCCCNC(=O)CC[C@H](NC(=O)CNC(=O)CC[C@H](NC(=O)CCCCCCCCCCCCCCCCC(=O)O)C(=O)O)C(=O)O)C(N)=O)NC(=O)[C@H](CCCNC(=N)N)NC(=O)[C@H](Cc2c[nH]cn2)NC(=O)[C@H](CCC(=O)O)NC(=O)CNC(=O)[C@H](Cc2c[nH]c3ccccc23)NC(=O)[C@H](CC(=O)O)NC(=O)[C@H](CCC(N)=O)NC(=O)[C@H](Cc2cn(C)c3ccccc23)NC1=O

Target: Human C3 (human, UniProt P01024 23-1663)
Sequence (P01024 23-1663 limits assumed): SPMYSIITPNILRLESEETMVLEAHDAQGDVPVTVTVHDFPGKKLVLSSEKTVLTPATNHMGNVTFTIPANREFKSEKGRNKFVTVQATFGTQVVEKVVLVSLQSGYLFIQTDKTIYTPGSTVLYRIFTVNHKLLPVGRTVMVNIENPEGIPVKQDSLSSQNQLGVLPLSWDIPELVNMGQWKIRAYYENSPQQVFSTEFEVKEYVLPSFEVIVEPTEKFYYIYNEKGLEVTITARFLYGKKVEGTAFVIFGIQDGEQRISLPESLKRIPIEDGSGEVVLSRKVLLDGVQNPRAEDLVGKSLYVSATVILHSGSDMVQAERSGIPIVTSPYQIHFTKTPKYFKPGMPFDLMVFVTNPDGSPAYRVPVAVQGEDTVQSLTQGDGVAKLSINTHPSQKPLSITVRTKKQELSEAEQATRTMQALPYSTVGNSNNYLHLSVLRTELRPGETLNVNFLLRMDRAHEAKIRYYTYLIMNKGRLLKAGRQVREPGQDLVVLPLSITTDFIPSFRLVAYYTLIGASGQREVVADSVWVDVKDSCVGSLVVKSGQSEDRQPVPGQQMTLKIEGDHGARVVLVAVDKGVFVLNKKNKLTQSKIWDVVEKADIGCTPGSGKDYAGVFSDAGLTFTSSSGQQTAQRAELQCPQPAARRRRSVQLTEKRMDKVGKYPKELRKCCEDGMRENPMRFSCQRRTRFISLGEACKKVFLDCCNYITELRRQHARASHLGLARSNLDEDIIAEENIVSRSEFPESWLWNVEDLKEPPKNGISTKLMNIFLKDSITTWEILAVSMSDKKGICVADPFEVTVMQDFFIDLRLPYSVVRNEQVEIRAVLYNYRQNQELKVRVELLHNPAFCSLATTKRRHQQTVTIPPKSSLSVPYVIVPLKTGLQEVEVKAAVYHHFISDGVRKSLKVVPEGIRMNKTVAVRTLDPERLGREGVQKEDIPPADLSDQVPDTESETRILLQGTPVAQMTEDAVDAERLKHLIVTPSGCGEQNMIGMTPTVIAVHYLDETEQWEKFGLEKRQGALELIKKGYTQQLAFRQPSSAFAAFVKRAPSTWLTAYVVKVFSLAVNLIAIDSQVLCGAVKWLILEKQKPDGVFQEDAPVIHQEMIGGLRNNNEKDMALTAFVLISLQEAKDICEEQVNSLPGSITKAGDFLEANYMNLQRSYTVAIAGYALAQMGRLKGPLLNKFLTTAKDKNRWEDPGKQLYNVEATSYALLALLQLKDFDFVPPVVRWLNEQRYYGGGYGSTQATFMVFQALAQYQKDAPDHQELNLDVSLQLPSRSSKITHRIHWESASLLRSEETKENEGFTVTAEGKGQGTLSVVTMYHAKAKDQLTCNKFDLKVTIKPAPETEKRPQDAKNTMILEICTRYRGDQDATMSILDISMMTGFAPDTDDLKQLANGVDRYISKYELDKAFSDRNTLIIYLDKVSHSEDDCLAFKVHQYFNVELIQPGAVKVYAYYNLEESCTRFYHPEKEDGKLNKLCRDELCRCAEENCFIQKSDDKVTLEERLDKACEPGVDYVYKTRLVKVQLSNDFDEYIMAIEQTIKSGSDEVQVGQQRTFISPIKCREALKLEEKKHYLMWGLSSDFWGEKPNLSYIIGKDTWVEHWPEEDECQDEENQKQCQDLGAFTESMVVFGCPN
Test: cell-based or functional assay

Row | Binder | IC50[nM], inhibition of hemolysis [nM]
1 | B1 | < 250
2 | B2 | < 500
3 | B3 | < 500
4 | B4 | < 500
5 | B5 | < 250
6 | Ac-SEYCI[Trp(1-Me)]QDWGEHRC[Sar]EGEK([γGlu-Lys-γGlu-C18 diacid])-NH2 (disulfide 4-14) [Compound 116] | < 500
7 | B6 | < 100
8 | B7 | < 100
9 | B8 | < 100
10 | B9 | < 100
11 | B10 | < 100
12 | Ac-SEFCI[Trp(1-Me)]QDWGEHRCTGAESK([γGlu-Gly-γGlu-15‑carboxy‑hexadecanoyl])-NH2 (disulfide 4-14) [Compound 135] | < 100
